Laboratory results published in publication PMC8079451, “Phosphopeptide interactions of the Nbs1 N-terminal FHA-BRCT1/2 domains” (Scientific Reports, 2021).
Residue numbers refer to the chain shown, from its start. Square brackets hold non-standard residues; d marks the D form. Primed or numbered codes have the meaning given here. Ends that are not written are not given here. FITC′ = fluorescein isothiocyanate label; pT = C[C@@H](OP(=O)(O)O)[C@H](N)C(=O)O

What was measured:
Assay in all cases: fluorescence polarisation; 100 nM FITC-labeled phosphopeptide with increasing hsNbs1(384); room temperature, 15 min incubation; 25 mM HEPES pH 7.4, 150 mM NaCl, 1 mM EDTA, 2 mM DTT, 0.05% Tween20, 0.1% BSA; one-site model
Conditions in all cases: both partners purified
hsNbs1(384) K160A = biological target: T1, hsNbs1(384) K160A (human, UniProt O60934 1-384, K160A)
T1 construct: source: E. coli BL21(DE3) pLacI, purified as the wild type
T1 sequence (looked up): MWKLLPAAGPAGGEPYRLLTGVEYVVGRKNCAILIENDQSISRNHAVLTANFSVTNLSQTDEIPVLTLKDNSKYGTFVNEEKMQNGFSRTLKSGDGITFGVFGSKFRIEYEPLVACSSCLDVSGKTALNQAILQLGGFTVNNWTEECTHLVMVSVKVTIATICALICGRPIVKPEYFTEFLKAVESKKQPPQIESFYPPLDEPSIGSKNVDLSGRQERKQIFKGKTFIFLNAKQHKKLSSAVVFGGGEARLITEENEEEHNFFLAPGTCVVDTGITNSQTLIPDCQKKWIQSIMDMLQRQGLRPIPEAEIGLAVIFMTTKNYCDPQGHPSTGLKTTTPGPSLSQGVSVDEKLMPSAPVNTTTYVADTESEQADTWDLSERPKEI

hsNbs1(384) K29A = biological target: T2, hsNbs1(384) K29A (human, UniProt O60934 1-384, K29A)
T2 construct: source: E. coli BL21(DE3) pLacI, purified as the wild type
T2 sequence (looked up): T1 sequence (looked up) with K29A, A160K

hsNbs1(384) R28A = biological target: T3, hsNbs1(384) R28A (human, UniProt O60934 1-384, R28A)
T3 construct: source: E. coli BL21(DE3) pLacI, purified as the wild type
T3 sequence (looked up): T1 sequence (looked up) with R28A, A160K

[1] = biological target: T4, hsNbs1(384), the N-terminal 384 residues of homo sapiens Nbs1 containing the FHA-BRCT1-BRCT2 domains (human, UniProt O60934 1-384)
T4 construct: gene optimised for E. coli, cloned into pET30a (NdeI/HindIII); also called wt; source: E. coli BL21(DE3) pLacI, purified (Ni-NTA, HiTrap Q, Superdex 75)
T4 sequence (looked up): T1 sequence (looked up) with A160K

hsNbs1(384) K73A = biological target: T5, hsNbs1(384) K73A (human, UniProt O60934 1-384, K73A)
T5 construct: source: E. coli BL21(DE3) pLacI, purified as the wild type
T5 sequence (looked up): T1 sequence (looked up) with K73A, A160K

## {FITC′}-GGRYIPPN[pT]PENFWEVGFPEEQ [hsCtIP phosphopeptide R841YIPPNpTPENFWEVGFPEEQ860 with N-terminal FITC-Gly-Gly]
hsNbs1(384) K160A
  Kd: 133 µM
hsNbs1(384) K29A
  Kd: 26 µM
hsNbs1(384) R28A
  Kd: 35.9 µM
[1]
  Kd: 20 µM
hsNbs1(384) K73A
  Kd: 32.9 µM
